The data set concerns the molecule itself. The experiment in a line: fluorescence correlation spectroscopy (FCS); purified ubiquitin- and GFP-tagged proteins at 0.1 µM in 20 mM HepesKOH pH 7.6 with 150 mM NaCl, compared with 500 mM NaCl; diffusivity as read-out of self-association.

B1: His-ubiquitin- and GFP-tagged full-length Cavin1 (recombinant GFP-Cavin1) (natural protein, mouse, UniProt O54724 1-392, looked up)
chain: MEDVTLHIVERPYSGFPDASSEGPEPTQGEARATEEPSGTGSDELIKSDQVNGVLVLSLLDKIIGAVDQIQLTQAQLEERQAEMEGAVQSIQGELSKLGKAHATTSNTVSKLLEKVRKVSVNVKTVRGSLERQAGQIKKLEVNEAELLRRRNFKVMIYQDEVKLPAKLSVSKSLKESEALPEKEGDELGEGERPEDDTAAIELSSDEAVEVEEVIEESRAERIKRSGLRRVDDFKKAFSKEKMEKTKVRTRENLEKTRLKTKENLEKTRHTLEKRMNKLGTRLVPVERREKLKTSRDKLRKSFTPDHVVYARSKTAVYKVPPFTFHVKKIREGEVEVLKATEMVEVGPEDDEVGAERGEATDLLRGSSPDVHTLLEITEESDAVLVDKSDSD
notes: Cavin1, mouse, residues 1-392; also called purified recombinant GFP-Cavin1; source: E. coli Rosetta 2 (DE3), purified (TALON, Superose 6 SEC); not shown: His6-ubiquitin, N-terminal, kept; GFP, C-terminal, kept
Consider B1, for which the binding result was “binds”.

The record behind these values is paper PMC7875971, “Cavin1 intrinsically disordered domains are essential for fuzzy electrostatic interactions and caveola formation” (Nature Communications, 2021).
